Measured values reported in US12679878B2, “CRF2 receptor agonists and their use in therapy” (SANOFI, priority 2020, dated 2026).
Starred links: 1 amine or outer side, 2 acyl side, 3 side chain; linkers in the order of their positions; H or OH if unused. Non-standard residues stand in square brackets, D forms with d. Groups on a side chain read outwards from the residue. No end group written: not given here. *: point of attachment. C18 diacid = O=C(O)CCCCCCCCCCCCCCCCC(=O)*; γGlu = O=C(O)[C@H](CCC(=O)[*:2])N[*:1]; Palmitoyl = CCCCCCCCCCCCCCCC(=O)*; AEEA = NCCOCCOCC(=O)O; Aib = CC(C)(N)C(=O)O

B1: SEQ ID NO: 3 (peptide)
peptide: IVLSLDVPIKLK([γGlu-Palmitoyl])KILLEQEKQEKEKQQAEKNAQILAQV-NH2
modifications: N-terminus assumed
SMILES: CCCCCCCCCCCCCCCC(=O)N[C@@H](CCC(=O)NCCCC[C@H](NC(=O)[C@H](CC(C)C)NC(=O)[C@H](CCCCN)NC(=O)[C@@H](NC(=O)[C@@H]1CCCN1C(=O)[C@@H](NC(=O)[C@H](CC(=O)O)NC(=O)[C@H](CC(C)C)NC(=O)[C@H](CO)NC(=O)[C@H](CC(C)C)NC(=O)[C@@H](NC(=O)[C@@H](N)[C@@H](C)CC)C(C)C)C(C)C)[C@@H](C)CC)C(=O)N[C@@H](CCCCN)C(=O)N[C@H](C(=O)N[C@@H](CC(C)C)C(=O)N[C@@H](CC(C)C)C(=O)N[C@@H](CCC(=O)O)C(=O)N[C@@H](CCC(N)=O)C(=O)N[C@@H](CCC(=O)O)C(=O)N[C@@H](CCCCN)C(=O)N[C@@H](CCC(N)=O)C(=O)N[C@@H](CCC(=O)O)C(=O)N[C@@H](CCCCN)C(=O)N[C@@H](CCC(=O)O)C(=O)N[C@@H](CCCCN)C(=O)N[C@@H](CCC(N)=O)C(=O)N[C@@H](CCC(N)=O)C(=O)N[C@@H](C)C(=O)N[C@@H](CCC(=O)O)C(=O)N[C@@H](CCCCN)C(=O)N[C@@H](CC(N)=O)C(=O)N[C@@H](C)C(=O)N[C@@H](CCC(N)=O)C(=O)N[C@H](C(=O)N[C@@H](CC(C)C)C(=O)N[C@@H](C)C(=O)N[C@@H](CCC(N)=O)C(=O)N[C@H](C(N)=O)C(C)C)[C@@H](C)CC)[C@@H](C)CC)C(=O)O
B2: SEQ ID NO: 60 (peptide)
peptide: FTLSLDVPTKIKQILLKQQKQKKERQQAEKNKQLLERV-NH2
modifications: not fully specified (residue 12); printed as FTLSLDVPTKIK*QILLKQQKQKKERQQAEKNKQLLERV-NH2
B3: SEQ ID NO: 61 (peptide)
peptide: FTLSLDVPTKIKQILLKQQKQKKERQQAETNKQLLERV-NH2
modifications: not fully specified (residue 12); printed as FTLSLDVPTKIK*QILLKQQKQKKERQQAETNKQLLERV-NH2
B4: SEQ ID NO: 62 (peptide)
peptide: FTLSLDVPIKLKQILLKQQKQKKERQQAETNVQLLERV-NH2
modifications: not fully specified (residue 12); printed as FTLSLDVPIKLK*QILLKQQKQKKERQQAETNVQLLERV-NH2
B5: SEQ ID NO: 63 (peptide)
peptide: FTLSLDVPIKLKQILLEQQKQKKERQQAETNVQLLERV-NH2
modifications: not fully specified (residue 12); printed as FTLSLDVPIKLK*QILLEQQKQKKERQQAETNVQLLERV-NH2
B6: SEQ ID NO: 64 (peptide)
peptide: FTLSLDVPTKIKQILLKQQKQKKERQKAETNVQLLERV-NH2
modifications: not fully specified (residue 12); printed as FTLSLDVPTKIK*QILLKQQKQKKERQKAETNVQLLERV-NH2
B7: SEQ ID NO: 65 (peptide)
peptide: FTLSLDVPIGLKQILLKQQKQKKERQQAETNVQLLERV-NH2
modifications: not fully specified (residue 12); printed as FTLSLDVPIGLK*QILLKQQKQKKERQQAETNVQLLERV-NH2
B8: SEQ ID NO: 66 (peptide)
peptide: FTLSLDVPIGLKQILLKQQKQKKERQKAETNVQLLERV-NH2
modifications: not fully specified (residue 12); printed as FTLSLDVPIGLK*QILLKQQKQKKERQKAETNVQLLERV-NH2
B9: SEQ ID NO: 67 (peptide)
peptide: IVLSLDVPIKLK([AEEA-AEEA-γGlu-C18 diacid])QILLEQEKQKKQREQAETNKQILAQV-NH2
modifications: N-terminus assumed
SMILES: CC[C@H](C)[C@H](N)C(=O)N[C@H](C(=O)N[C@@H](CC(C)C)C(=O)N[C@@H](CO)C(=O)N[C@@H](CC(C)C)C(=O)N[C@@H](CC(=O)O)C(=O)N[C@H](C(=O)N1CCC[C@H]1C(=O)N[C@H](C(=O)N[C@@H](CCCCN)C(=O)N[C@@H](CC(C)C)C(=O)N[C@@H](CCCCNC(=O)COCCOCCNC(=O)COCCOCCNC(=O)CC[C@H](NC(=O)CCCCCCCCCCCCCCCCC(=O)O)C(=O)O)C(=O)N[C@@H](CCC(N)=O)C(=O)N[C@H](C(=O)N[C@@H](CC(C)C)C(=O)N[C@@H](CC(C)C)C(=O)N[C@@H](CCC(=O)O)C(=O)N[C@@H](CCC(N)=O)C(=O)N[C@@H](CCC(=O)O)C(=O)N[C@@H](CCCCN)C(=O)N[C@@H](CCC(N)=O)C(=O)N[C@@H](CCCCN)C(=O)N[C@@H](CCCCN)C(=O)N[C@@H](CCC(N)=O)C(=O)N[C@@H](CCCNC(=N)N)C(=O)N[C@@H](CCC(=O)O)C(=O)N[C@@H](CCC(N)=O)C(=O)N[C@@H](C)C(=O)N[C@@H](CCC(=O)O)C(=O)N[C@H](C(=O)N[C@@H](CC(N)=O)C(=O)N[C@@H](CCCCN)C(=O)N[C@@H](CCC(N)=O)C(=O)N[C@H](C(=O)N[C@@H](CC(C)C)C(=O)N[C@@H](C)C(=O)N[C@@H](CCC(N)=O)C(=O)N[C@H](C(N)=O)C(C)C)[C@@H](C)CC)[C@@H](C)O)[C@@H](C)CC)[C@@H](C)CC)C(C)C)C(C)C
B10: SEQ ID NO: 68 (peptide)
peptide: IVLSLDVPIKLK([AEEA-AEEA-γGlu-C18 diacid])QILLEQERQKKQREQAETNKQILAQV-NH2
modifications: N-terminus assumed
SMILES: CC[C@H](C)[C@H](N)C(=O)N[C@H](C(=O)N[C@@H](CC(C)C)C(=O)N[C@@H](CO)C(=O)N[C@@H](CC(C)C)C(=O)N[C@@H](CC(=O)O)C(=O)N[C@H](C(=O)N1CCC[C@H]1C(=O)N[C@H](C(=O)N[C@@H](CCCCN)C(=O)N[C@@H](CC(C)C)C(=O)N[C@@H](CCCCNC(=O)COCCOCCNC(=O)COCCOCCNC(=O)CC[C@H](NC(=O)CCCCCCCCCCCCCCCCC(=O)O)C(=O)O)C(=O)N[C@@H](CCC(N)=O)C(=O)N[C@H](C(=O)N[C@@H](CC(C)C)C(=O)N[C@@H](CC(C)C)C(=O)N[C@@H](CCC(=O)O)C(=O)N[C@@H](CCC(N)=O)C(=O)N[C@@H](CCC(=O)O)C(=O)N[C@@H](CCCNC(=N)N)C(=O)N[C@@H](CCC(N)=O)C(=O)N[C@@H](CCCCN)C(=O)N[C@@H](CCCCN)C(=O)N[C@@H](CCC(N)=O)C(=O)N[C@@H](CCCNC(=N)N)C(=O)N[C@@H](CCC(=O)O)C(=O)N[C@@H](CCC(N)=O)C(=O)N[C@@H](C)C(=O)N[C@@H](CCC(=O)O)C(=O)N[C@H](C(=O)N[C@@H](CC(N)=O)C(=O)N[C@@H](CCCCN)C(=O)N[C@@H](CCC(N)=O)C(=O)N[C@H](C(=O)N[C@@H](CC(C)C)C(=O)N[C@@H](C)C(=O)N[C@@H](CCC(N)=O)C(=O)N[C@H](C(N)=O)C(C)C)[C@@H](C)CC)[C@@H](C)O)[C@@H](C)CC)[C@@H](C)CC)C(C)C)C(C)C
B11: SEQ ID NO: 4 (peptide)
peptide: IVLSLDVPIGLK([γGlu-Palmitoyl])QKLLKQEKQEKEKQQAETNAKILAQV-NH2
modifications: N-terminus assumed
SMILES: CCCCCCCCCCCCCCCC(=O)N[C@@H](CCC(=O)NCCCC[C@H](NC(=O)[C@H](CC(C)C)NC(=O)CNC(=O)[C@@H](NC(=O)[C@@H]1CCCN1C(=O)[C@@H](NC(=O)[C@H](CC(=O)O)NC(=O)[C@H](CC(C)C)NC(=O)[C@H](CO)NC(=O)[C@H](CC(C)C)NC(=O)[C@@H](NC(=O)[C@@H](N)[C@@H](C)CC)C(C)C)C(C)C)[C@@H](C)CC)C(=O)N[C@@H](CCC(N)=O)C(=O)N[C@@H](CCCCN)C(=O)N[C@@H](CC(C)C)C(=O)N[C@@H](CC(C)C)C(=O)N[C@@H](CCCCN)C(=O)N[C@@H](CCC(N)=O)C(=O)N[C@@H](CCC(=O)O)C(=O)N[C@@H](CCCCN)C(=O)N[C@@H](CCC(N)=O)C(=O)N[C@@H](CCC(=O)O)C(=O)N[C@@H](CCCCN)C(=O)N[C@@H](CCC(=O)O)C(=O)N[C@@H](CCCCN)C(=O)N[C@@H](CCC(N)=O)C(=O)N[C@@H](CCC(N)=O)C(=O)N[C@@H](C)C(=O)N[C@@H](CCC(=O)O)C(=O)N[C@H](C(=O)N[C@@H](CC(N)=O)C(=O)N[C@@H](C)C(=O)N[C@@H](CCCCN)C(=O)N[C@H](C(=O)N[C@@H](CC(C)C)C(=O)N[C@@H](C)C(=O)N[C@@H](CCC(N)=O)C(=O)N[C@H](C(N)=O)C(C)C)[C@@H](C)CC)[C@@H](C)O)C(=O)O
B12: SEQ ID NO: 69 (peptide)
peptide: IVLSLDVPIKLK([AEEA-AEEA-γGlu-C18 diacid])K[Aib]LLEQERQKKQREQAETNKQILAQV-NH2
modifications: N-terminus assumed
SMILES: CC[C@H](C)[C@H](N)C(=O)N[C@H](C(=O)N[C@@H](CC(C)C)C(=O)N[C@@H](CO)C(=O)N[C@@H](CC(C)C)C(=O)N[C@@H](CC(=O)O)C(=O)N[C@H](C(=O)N1CCC[C@H]1C(=O)N[C@H](C(=O)N[C@@H](CCCCN)C(=O)N[C@@H](CC(C)C)C(=O)N[C@@H](CCCCNC(=O)COCCOCCNC(=O)COCCOCCNC(=O)CC[C@H](NC(=O)CCCCCCCCCCCCCCCCC(=O)O)C(=O)O)C(=O)N[C@@H](CCCCN)C(=O)NC(C)(C)C(=O)N[C@@H](CC(C)C)C(=O)N[C@@H](CC(C)C)C(=O)N[C@@H](CCC(=O)O)C(=O)N[C@@H](CCC(N)=O)C(=O)N[C@@H](CCC(=O)O)C(=O)N[C@@H](CCCNC(=N)N)C(=O)N[C@@H](CCC(N)=O)C(=O)N[C@@H](CCCCN)C(=O)N[C@@H](CCCCN)C(=O)N[C@@H](CCC(N)=O)C(=O)N[C@@H](CCCNC(=N)N)C(=O)N[C@@H](CCC(=O)O)C(=O)N[C@@H](CCC(N)=O)C(=O)N[C@@H](C)C(=O)N[C@@H](CCC(=O)O)C(=O)N[C@H](C(=O)N[C@@H](CC(N)=O)C(=O)N[C@@H](CCCCN)C(=O)N[C@@H](CCC(N)=O)C(=O)N[C@H](C(=O)N[C@@H](CC(C)C)C(=O)N[C@@H](C)C(=O)N[C@@H](CCC(N)=O)C(=O)N[C@H](C(N)=O)C(C)C)[C@@H](C)CC)[C@@H](C)O)[C@@H](C)CC)C(C)C)C(C)C

What follows are binders tested against human corticotropin-releasing factor 2α (CRF2 α receptor) (human), Q13324 (assay: cell-based or functional assay).
Sequence of human corticotropin-releasing factor 2α (CRF2 α receptor) (human), Q13324 (Q13324 20-411): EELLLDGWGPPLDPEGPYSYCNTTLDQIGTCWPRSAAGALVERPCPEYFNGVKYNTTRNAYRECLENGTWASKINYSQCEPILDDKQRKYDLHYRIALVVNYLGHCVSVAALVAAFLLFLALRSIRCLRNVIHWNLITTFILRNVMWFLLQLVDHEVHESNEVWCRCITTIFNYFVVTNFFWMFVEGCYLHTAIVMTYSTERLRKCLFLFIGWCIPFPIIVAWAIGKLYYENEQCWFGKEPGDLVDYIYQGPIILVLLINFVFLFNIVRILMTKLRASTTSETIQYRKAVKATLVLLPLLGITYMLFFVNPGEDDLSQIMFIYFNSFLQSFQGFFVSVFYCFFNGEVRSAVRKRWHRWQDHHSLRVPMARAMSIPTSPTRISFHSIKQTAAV
For B1, the EC50 [nM], 0% HSA was 0.01 nM.
B2 gave an EC50 [nM], 0% HSA of 0.48 nM.
B3 showed an EC50 [nM], 0% HSA of 0.38 nM.
For B4, the EC50 [nM], 0% HSA was 0.8 nM.
B5 was tested, and the EC50 [nM], 0% HSA was 0.63 nM.
Binder B6 has an EC50 [nM], 0% HSA of 13.2 nM.
With B7 the EC50 [nM], 0% HSA was 9.31 nM.
B8 showed an EC50 [nM], 0% HSA of 25.4 nM.
Binder B9 has an EC50 [nM], 0% HSA of 0.57 nM.
In the case of B10, the EC50 [nM], 0% HSA is reported as 0.2 nM.
In the case of B11, the EC50 [nM], 0% HSA is reported as 0.04 nM.
In the case of B12, the EC50 [nM], 0% HSA is reported as 0.61 nM.
